The values that follow come from patent US20080027145A1, “Therapeutic Molecules and Methods for Generating and/or Selecting Same” (priority 2004, published 2008).

The target in one assay is T1, Mcl-1 ΔN151 ΔC23 (Mus musculus, UniProt P97287).
T1 construct: mouse Mcl-1 (Acc. no. NP_031588; residues 152-308); GST (N, cleaved yes); made in house
Put plainly: Mcl-1 ΔN151 ΔC23. On the procedure:
(§1) Table printed on a drawing sheet, FIGURE 2A
Head of the field: Mcl-1 ΔN151 ΔC23
(§2) The patent's description of the figure: FIG. 2 is a graphical representation showing pro-apoptotic BH3-only and pro-survival Bcl-2-like proteins have distinctive interactions. (A) Using competitive binding assays, the IC50 (nM) for the indicated interactions were determined. The results shown are from representative experiments; the variation observed in multiple experiments was less than two-fold (using different chips or protein batches). (B) Relative binding affinities of interactions (tabulated in A) were inversely plotted. The BH3 binding profiles of pro-survival proteins are shown. In (C), the sequences of human Bcl-2 (residues 93-202), human Bcl-xL (86-195), human Bcl-w (42-151), mouse Mcl-1 (190-300) and mouse A1 (33-148) that form their BH3 binding grooves (α-helices 2 to 8; Hinds et al., EMBO J 22:1497-1507, 2003) were compared and presented as a phylogenetic tree. Color reproductions are available from the patentees on request.
(§3) First copying reader's note: The table itself prints no unit; IC50 (nM) is printed only on the axis of panel B of the same figure, which plots the same values.
Where the first naming reader finds the target: head: Mcl-1 ΔN151 ΔC23

The target in a further assay is T2, A1 ΔC20 (Mus musculus, UniProt Q07440).
T2 construct: mouse A1 (Acc. no. NP_033872; residues 1-152); GST (N, cleaved yes); made in house
T2 sequence (Q07440 1-152, stated change not applied): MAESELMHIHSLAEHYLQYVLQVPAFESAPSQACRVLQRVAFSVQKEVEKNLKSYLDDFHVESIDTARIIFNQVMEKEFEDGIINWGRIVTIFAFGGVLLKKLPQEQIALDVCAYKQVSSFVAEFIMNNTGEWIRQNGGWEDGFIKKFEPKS
Put plainly: A1 ΔC20. The method, then: as §1
Head of the field: A1 ΔC20
as §2, §3
Where the first naming reader finds the target: head: A1 ΔC20

A further assay deals with T3, FLAG-tagged Bcl-xL (Homo sapiens, UniProt Q07817).
T3 construct: expressed in transfected cells; host or cells: HEK293T
T3 sequence (Q07817 whole entry): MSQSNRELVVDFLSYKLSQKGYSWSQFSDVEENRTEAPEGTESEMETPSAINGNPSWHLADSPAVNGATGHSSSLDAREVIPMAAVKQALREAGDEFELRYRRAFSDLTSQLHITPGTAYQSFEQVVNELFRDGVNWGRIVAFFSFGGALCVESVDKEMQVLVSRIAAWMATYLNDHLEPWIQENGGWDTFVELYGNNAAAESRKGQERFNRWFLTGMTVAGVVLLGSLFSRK
Put plainly: Co-immunoprecipitation in transfected 293T cells. In kind it is binding. Conditions: tagged full-length proteins. The source says:
(§4) Equivalent ^35S-labeled lysates harvested from 293T cells were immunoprecipitated with antibodies to the HA, FLAG (FL) or control (C) tags.
(§5) The maintenance, transfection and metabolic labeling of the human embryonic kidney (HEK) 293T cells with ^35S-methionine/cysteine (NEN) as well as co-immunoprecipitation have been described (Huang et al., Supra; Moriishi et al., Proc Natl Acad Sci USA 96:9683-9688, 1999; O'Conner et al., Supra). Briefly, equivalent TCA-precipitable lysates were immunoprecipiated using the mouse monoclonal antibodies to HA (HA.11; CRP), FLAG (M2; Sigma) and control Glu-Glu (CRP) tags. The proteins were resolved by SDS:PAGE, transferred onto nitrocellulose membranes and detected by fluorography (Amplify; Amersham Biosciences).
(§6) To verify the in vitro findings, interactions of selected pairs of the full-length N-terminally tagged proteins were investigated in mammalian cells by co-immunoprecipitation. […] The cells were metabolically labeled with ^35S-methionine/cysteine to permit semi-quantitative assessment of any interaction between co-associating radiolabeled proteins.
(§7) To verify the in vitro findings, selected pairs of the full-length N-terminally tagged proteins associated in mammalian cells were investigated by co-immunoprecipitation. […] The cells were metabolically labeled with ^35S-methionine/cysteine to permit semi-quantitative assessment of any interaction between the labeled proteins or interaction was gauged by the more sensitive western blotting.

The next assay has as its target T4, FLAG-tagged Mcl-1 (Mus musculus, UniProt P97287).
T4 construct: expressed in transfected cells; host or cells: HEK293T
Put plainly: Co-immunoprecipitation in transfected 293T cells. Conditions: tagged full-length proteins. Type of assay: binding.
Excerpt: as §4, §5, §6, §7

Assay [1] has as its system mouse embryonic fibroblasts (MEFs). Put plainly: Killing of MEFs after retroviral expression, viability 24 hours after infection. In kind it is cell-based. Conditions: retroviral expression, 24 hours after infection. The method, then: FIG. 7 is a graphical representation showing that BH3-only proteins that bind selective targets have weak killing activity. (A) The affinities of BH3-only peptides for pro-survival proteins (tabulated in FIG. 3A) were inversely plotted to facilitate comparison of the patterns of BH3 binding. […] Immortalized 3T9 MEFs were infected with retroviruses expressing only GFP (control), or one of the BH3-only proteins and GFP. The viability of the infected (GFP^+ve) cells was determined by PI exclusion 24 hours after infection. The histograms represent means±1SD of at least 3 experiments. […] The filter was probed with a rat monoclonal anti-FLAG antibody. *Degradation product of Mcl-1. […] Viability of MEFs infected with retroviruses encoding the indicated proteins (GFP^+ve) was analyzed 24 hours after infection. The histograms represent means±1SD of at least 3 experiments. (E) Long-term survival of MEFs infected with BH3 expressing retroviruses. One hundred retrovirally-infected cells were plated and the absolute number of GFP^+ve colonies formed after 6 days scored. […] The data represent the average number of GFP^+ve colonies formed±1SD from at least 3 experiments. To assess the biological relevance of the selective binding, retroviral delivery was used to compare the ability of different BH3-only proteins to kill wild-type mouse embryonic fibroblasts (MEFs). To monitor expression of the introduced gene, a vector (pMIG) in which its expression is coupled via an internal ribosomal entry site (IRES) to that of green fluorescent protein (GFP) was used (Van Parijs et al., Immunity 11:281-288, 1999). The cells were efficiently infected (>90%) and the introduced BH3-only proteins were comparably expressed. Viability of the infected (GFP^+ve) cells was scored 24 hours after infection (FIGS. 7A, 7B) and in long-term colony assays (FIG. 7E). […] Thus, the neutralization of Mcl-1 by Noxa should be complemented by co-expression of a BadBH3 to neutralize Bcl-2 and Bcl-xL in MEFs (FIG. 8A).

In another assay the target is T5, Bcl-w ΔC29 (Homo sapiens, UniProt Q92843, A128E/C29S).
T5 construct: human Bcl-w (Acc. no. NP_004041; residues 1-164; C29S A128E); made in house
T5 sequence (Q92843 1-164 C29S/A128E): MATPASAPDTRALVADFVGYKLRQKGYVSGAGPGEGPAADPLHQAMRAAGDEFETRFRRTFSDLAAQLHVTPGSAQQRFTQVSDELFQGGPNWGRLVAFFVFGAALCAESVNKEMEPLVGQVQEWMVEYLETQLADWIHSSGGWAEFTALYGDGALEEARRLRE
Put plainly: Bcl-w ΔC29. On the procedure: as §1, §2, §3

A further assay concerns the target T6, Bcl-2 ΔC22 (Homo sapiens, UniProt P10415).
T6 construct: Human Bcl-2 (Acc. no. NP_000624; residues 1-217); made in house
Put plainly: Bcl-2 ΔC22. On the procedure: as §1
Head of the field: Bcl-2 ΔC22
as §2, with “In (C), the sequences of human Bcl-2 (residues 93-202), human Bcl-xL (86-195), human Bcl-w (42-151), mouse Mcl-1 (190-300) and mouse A1 (33-148) that form their BH3 binding grooves (α-helices 2 to 8; Hinds et al., EMBO J 22:1497-1507, 2003) were compared and presented as a phylogenetic tree.” left out
as §3
Where the first naming reader finds the target: head: Bcl-2 ΔC22

Another assay deals with T7, Bcl-xL ΔC24 (Homo sapiens, UniProt Q07817).
T7 construct: Human Bcl-xL (Acc. no. NP_612815; residues 1-209); GST (N, cleaved yes); made in house
T7 sequence (Q07817 1-209, stated change not applied): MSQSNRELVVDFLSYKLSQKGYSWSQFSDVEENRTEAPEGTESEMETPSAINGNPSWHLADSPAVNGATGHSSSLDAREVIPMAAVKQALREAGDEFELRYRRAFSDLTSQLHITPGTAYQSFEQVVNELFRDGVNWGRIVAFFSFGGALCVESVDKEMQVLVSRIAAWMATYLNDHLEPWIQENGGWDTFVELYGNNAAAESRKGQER
Put plainly: Bcl-xL ΔC24. On the procedure: as §1
Head of the field: Bcl-xL ΔC24
as §2, §3
Where the first naming reader finds the target: head: Bcl-xL ΔC24

T1 sequence (P97287 152-308, stated change not applied): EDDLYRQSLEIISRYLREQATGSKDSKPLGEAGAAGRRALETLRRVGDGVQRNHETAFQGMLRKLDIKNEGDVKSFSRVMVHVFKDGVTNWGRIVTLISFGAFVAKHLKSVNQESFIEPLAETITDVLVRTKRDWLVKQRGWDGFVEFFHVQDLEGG
T4 sequence (P97287 whole entry): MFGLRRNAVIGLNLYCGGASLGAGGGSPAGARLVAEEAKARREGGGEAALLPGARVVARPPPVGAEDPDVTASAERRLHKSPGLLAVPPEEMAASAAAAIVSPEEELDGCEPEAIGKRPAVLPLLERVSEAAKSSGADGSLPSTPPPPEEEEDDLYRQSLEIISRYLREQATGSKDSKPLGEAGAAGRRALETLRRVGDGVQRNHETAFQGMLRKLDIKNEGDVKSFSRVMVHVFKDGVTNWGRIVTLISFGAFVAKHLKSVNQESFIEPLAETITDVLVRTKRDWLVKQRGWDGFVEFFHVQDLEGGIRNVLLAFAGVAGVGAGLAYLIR
T6 sequence (P10415 1-217, stated change not applied): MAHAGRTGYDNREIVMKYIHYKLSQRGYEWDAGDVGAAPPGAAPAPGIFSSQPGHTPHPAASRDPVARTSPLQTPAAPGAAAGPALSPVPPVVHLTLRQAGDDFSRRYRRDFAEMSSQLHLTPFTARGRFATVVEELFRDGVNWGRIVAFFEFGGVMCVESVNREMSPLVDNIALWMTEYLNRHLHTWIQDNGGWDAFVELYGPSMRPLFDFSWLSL

Regarding “Puma: full-length human BH3-only protein Puma expressed in cells”, the half-maximal inhibitory concentration (IC50) was found to be 5 nM with Mcl-1 ΔN151 ΔC23 and 5.7 nM in the assay with A1 ΔC20.

In the case of “Noxa m3: Noxa BH3 with K35E and F32I expressed in cells (Bims NoxaBH3 m3 in FIG. 9D) (PAELEVECATQLRRIGDELNFRQKLL)”, the “interaction with Bcl-xL by co-immunoprecipitation” value with FLAG-tagged Bcl-xL is “bound”. The “interaction with Mcl-1 by co-immunoprecipitation” value with FLAG-tagged Mcl-1 is “binds”. The “killing of MEFs” value in assay [1] is on record as “more potent killer than wild-type Noxa”.

Regarding “Hrk: BH3-only protein Hrk expressed from retrovirus in MEFs”, the half-maximal inhibitory concentration (IC50) is 49 nM with Bcl-w ΔC29, 46 nM in the assay with A1 ΔC20, 320 nM in the assay with Bcl-2 ΔC22 and 3.7 nM with Bcl-xL ΔC24.
